Drawing on publication PMC4072508, “Genome-Wide Prediction and Validation of Peptides That Bind Human Prosurvival Bcl-2 Proteins” (PLoS Computational Biology, 2014), this text covers SPOT signal as a fraction of Bim BH3's signal on the same receptor and array for 37 molecules.

One assay concerns the target Bcl-xL, Q07817. Nature of the assay: peptide SPOT array, c-Myc-tagged receptor at 1 uM or 100 nM, anti-c-Myc-Cy3.
The next assay has as its target T1, Mcl-1, Q07820.
T1 chain: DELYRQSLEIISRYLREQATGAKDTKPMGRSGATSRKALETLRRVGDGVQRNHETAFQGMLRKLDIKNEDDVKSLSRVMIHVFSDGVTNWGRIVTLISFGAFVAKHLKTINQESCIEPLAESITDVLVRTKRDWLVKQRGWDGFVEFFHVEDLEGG
The description is as above.

Chain of Bcl-xL, Q07817 (Q07817 1-209): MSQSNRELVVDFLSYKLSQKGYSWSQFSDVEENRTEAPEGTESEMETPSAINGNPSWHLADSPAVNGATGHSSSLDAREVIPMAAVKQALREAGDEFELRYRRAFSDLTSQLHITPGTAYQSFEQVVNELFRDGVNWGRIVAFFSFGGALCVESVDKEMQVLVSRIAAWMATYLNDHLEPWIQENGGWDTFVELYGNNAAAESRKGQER

B1: HAP1 (peptide)
chain: VEQFSEASQQMAELSEVLVLRLENYE
B1: the SPOT signal as a fraction of Bim BH3's signal on the same receptor and array was 0.02 with Bcl-xL, Q07817 and 0.02 with Mcl-1, Q07820.

B2: EXOC5 (peptide)
chain: DEHISYVATKDCHLGDQLEGVNTPRQ
With B2, the SPOT signal as a fraction of Bim BH3's signal on the same receptor and array amounted to 0.02 with Bcl-xL, Q07817 and 0.01 with Mcl-1, Q07820.

B3: CIITA (peptide)
chain: PPDAHVLGKADEAAGQDFSLDLRSTG
In the case of B3, the SPOT signal as a fraction of Bim BH3's signal on the same receptor and array worked out at 0.01 with Bcl-xL, Q07817 and 0.01 with Mcl-1, Q07820.

B4: SLC1A2 (peptide)
chain: IGFFIAFGIAMGKMGDQAKLMVDFFN
Turning to B4, the SPOT signal as a fraction of Bim BH3's signal on the same receptor and array worked out at 0.02 in the assay with Bcl-xL, Q07817 and 0.02 in the assay with Mcl-1, Q07820.

B5: CCDC76 (peptide)
chain: KLPVVGIGKHDCGMATDLALRCLVET
On to B5, for which the SPOT signal as a fraction of Bim BH3's signal on the same receptor and array with Bcl-xL, Q07817 amounted to 0.01; in the assay with Mcl-1, Q07820, 0.01.

B6: RINT1 (peptide)
chain: LNAVNYISTVDADWADNVFFLQLQQA
B6: the SPOT signal as a fraction of Bim BH3's signal on the same receptor and array turned out to be 0.02 with Bcl-xL, Q07817 and 0.03 in the assay with Mcl-1, Q07820.

B7: SOS1 (peptide)
chain: QLSKPGAALYLQSILEGFKEAVQYVL
On to B7, for which the SPOT signal as a fraction of Bim BH3's signal on the same receptor and array with Bcl-xL, Q07817 was 0.03; with Mcl-1, Q07820, 0.03.

B8: GNB5 (peptide)
chain: SVRYYPSGDADASGSDDATCRLYDLR
On to B8, for which the SPOT signal as a fraction of Bim BH3's signal on the same receptor and array was 0.01 with Bcl-xL, Q07817 and 0.01 with Mcl-1, Q07820.

B9: MST1R (peptide)
chain: RDPQGWVAGNLSARLDGAAGFTLPGF
With B9, the SPOT signal as a fraction of Bim BH3's signal on the same receptor and array with Bcl-xL, Q07817 was 0.02; with Mcl-1, Q07820, 0.02.

B10: FAM115A (peptide)
chain: RGAMLSLATGLAHSGSDLSLLVPEIE
Regarding B10, the SPOT signal as a fraction of Bim BH3's signal on the same receptor and array in the assay with Bcl-xL, Q07817 was determined as 0.09; with Mcl-1, Q07820, 0.06.

B11: GLOD4 (peptide)
chain: VILADPDGHEDCFVGDEAFRELSKMD
As for B11, the SPOT signal as a fraction of Bim BH3's signal on the same receptor and array worked out at 0.01 with Bcl-xL, Q07817 and 0.01 in the assay with Mcl-1, Q07820.

B12: FLAD1 (peptide)
chain: LSPGRSVTAGDIIVGDEILKGHTQDT
Take B12: the SPOT signal as a fraction of Bim BH3's signal on the same receptor and array in the assay with Bcl-xL, Q07817 was 0.01; in the assay with Mcl-1, Q07820, 0.01.

B13: POLE (peptide)
chain: CILNSFYGYVDRKGARWYSMEMAGIV
Take B13: the SPOT signal as a fraction of Bim BH3's signal on the same receptor and array is 0.09 in the assay with Bcl-xL, Q07817 and 0.1 in the assay with Mcl-1, Q07820.

B14: RINT1 (peptide)
chain: LNAVNYISTVLADWLDNVFFLQLQQA
As to B14, the SPOT signal as a fraction of Bim BH3's signal on the same receptor and array with Bcl-xL, Q07817 is 0.02; in the assay with Mcl-1, Q07820, 0.03.

B15: SPAG9 (peptide)
chain: HPRKESQVRQDAWVGDGVWVSIRLDS
B15: the SPOT signal as a fraction of Bim BH3's signal on the same receptor and array with Bcl-xL, Q07817 came to 0.02; in the assay with Mcl-1, Q07820 it was 0.02.

B16: SLC40A1 (peptide)
chain: AKFLLYLGHSLSTWGDRMWHFAVSVF
For the molecule B16, the SPOT signal as a fraction of Bim BH3's signal on the same receptor and array came out at 0.1 in the assay with Bcl-xL, Q07817 and 0.07 with Mcl-1, Q07820.

B17: ADCY10 (peptide)
chain: EKVLIFGGDILKFAGDALLALWRVER
As for B17, the SPOT signal as a fraction of Bim BH3's signal on the same receptor and array with Bcl-xL, Q07817 is 0.04; with Mcl-1, Q07820, 0.02.

B18: HDLBP (peptide)
chain: RHFVIRRGQVLREIAEEYGGVMVSFP
In the case of B18, the SPOT signal as a fraction of Bim BH3's signal on the same receptor and array with Bcl-xL, Q07817 is 0.05; in the assay with Mcl-1, Q07820, 0.04.

B19: GNB5 (peptide)
chain: SVRYYPSGDAFASGSDDATCRLYDLR
B19: the SPOT signal as a fraction of Bim BH3's signal on the same receptor and array with Bcl-xL, Q07817 came to 0.02; with Mcl-1, Q07820 it was 0.02.

B20: NCOR2 (peptide)
chain: QQMHHNAATADAQRADMLRGLSPRES
For the molecule B20, the SPOT signal as a fraction of Bim BH3's signal on the same receptor and array came to 0.02 in the assay with Bcl-xL, Q07817 and 0.01 with Mcl-1, Q07820.

B21: MAPK8IP3 (peptide)
chain: HPRRESQVRQLAWILDGVWVSIRLDS
For B21, the SPOT signal as a fraction of Bim BH3's signal on the same receptor and array with Bcl-xL, Q07817 worked out at 0.03; with Mcl-1, Q07820 it was 0.03.

B22: MAPKAPK2 (peptide)
chain: AFTEREASEIMKSILEAIQYLHSINI
Consider B22, for which the SPOT signal as a fraction of Bim BH3's signal on the same receptor and array with Bcl-xL, Q07817 amounted to 0.02; with Mcl-1, Q07820, 0.01.

B23: MAPK8IP3 (peptide)
chain: HPRRESQVRQLAWIGDGVWVSIRLDS
On to B23, for which the SPOT signal as a fraction of Bim BH3's signal on the same receptor and array with Bcl-xL, Q07817 was found to be 0.03; in the assay with Mcl-1, Q07820 it was 0.02.

B24: PPM1F (peptide)
chain: CALIAGATLHDAWLGDSQVILVQQGQ
Regarding B24, the SPOT signal as a fraction of Bim BH3's signal on the same receptor and array with Bcl-xL, Q07817 was determined as 0.02; in the assay with Mcl-1, Q07820, 0.01.

B25: NT5C2 (peptide)
chain: CDLLGAKGKDILYILDHIFGDILKSK
For the molecule B25, the SPOT signal as a fraction of Bim BH3's signal on the same receptor and array was 0.06 in the assay with Bcl-xL, Q07817 and 0.06 with Mcl-1, Q07820.

B26: RYR1 (peptide)
chain: DLSAVTLSREDQAMAEQLAENYHNTW
As to B26, the SPOT signal as a fraction of Bim BH3's signal on the same receptor and array with Bcl-xL, Q07817 was determined as 0.02; with Mcl-1, Q07820 it was 0.02.

B27: SPOCK2 (peptide)
chain: GKPETCTGQDLADLGDRLRDWFQLLH
For the molecule B27, the SPOT signal as a fraction of Bim BH3's signal on the same receptor and array came to 0.02 in the assay with Bcl-xL, Q07817 and 0.01 with Mcl-1, Q07820.

B28: STRN (peptide)
chain: LGLGELAGLTVANEADSLTYDIANNK
Regarding B28, the SPOT signal as a fraction of Bim BH3's signal on the same receptor and array came to 0.02 with Bcl-xL, Q07817 and 0.01 with Mcl-1, Q07820.

B29: DBC1 (peptide)
chain: ISDVQVFGYSLRFNADLLRSAVQQVN
Turning to B29, the SPOT signal as a fraction of Bim BH3's signal on the same receptor and array was found to be 0.02 with Bcl-xL, Q07817 and 0.02 with Mcl-1, Q07820.

B30: HDAC3 (peptide)
chain: VDFYQPTCIVDQCGADSLGCDRLGCF
On to B30, for which the SPOT signal as a fraction of Bim BH3's signal on the same receptor and array with Bcl-xL, Q07817 was 0.01; in the assay with Mcl-1, Q07820, 0.01.

B31: SEH1L (peptide)
chain: RVSWNITGTVLASSGDDGCVRLWKAN
With B31, the SPOT signal as a fraction of Bim BH3's signal on the same receptor and array in the assay with Bcl-xL, Q07817 came to 0.3; with Mcl-1, Q07820, 0.08.

B32: PRKDC (peptide)
chain: SHALICISHWILGILDRHLNNFMVAM
In the case of B32, the SPOT signal as a fraction of Bim BH3's signal on the same receptor and array with Bcl-xL, Q07817 amounted to 0.03; in the assay with Mcl-1, Q07820, 0.02.

B33: TIGD7_3eA (peptide)
chain: VLSRIEAGRSLKSVADEFGISKSTFY
For the molecule B33, the SPOT signal as a fraction of Bim BH3's signal on the same receptor and array with Bcl-xL, Q07817 amounted to 0.95; with Mcl-1, Q07820, 0.02.

B34: PPM1F (peptide)
chain: CALIAGATLHVAWLGDSQVILVQQGQ
Consider B34, for which the SPOT signal as a fraction of Bim BH3's signal on the same receptor and array in the assay with Bcl-xL, Q07817 was determined as 0.02; with Mcl-1, Q07820, 0.01.

B35: VPS13C (peptide)
chain: SRQPRDFGDSDARGGKGFLRGVVGGV
As to B35, the SPOT signal as a fraction of Bim BH3's signal on the same receptor and array in the assay with Bcl-xL, Q07817 is 0.48; with Mcl-1, Q07820 it was 0.17.

B36: EXOC5 (peptide)
chain: DEHISYVATKVCHLLDQLEGVNTPRQ
For B36, the SPOT signal as a fraction of Bim BH3's signal on the same receptor and array with Bcl-xL, Q07817 is 0.02; in the assay with Mcl-1, Q07820, 0.02.

B37: CLTCL1 (peptide)
chain: FRFAQLCGLHDVIHADELEELMCYYQ
Turning to B37, the SPOT signal as a fraction of Bim BH3's signal on the same receptor and array in the assay with Bcl-xL, Q07817 came out at 0.02; with Mcl-1, Q07820 it was 0.02.
